In this data set the target is prothrombin, P00734.

B1: genetic recombinant ecarin (protein)
chain: IILGSGNVNDYEVVYPQKVTALPKGAVQQPEQKYEDAMQYEFEVKGEPVVLHLEKNKELFSEDYSETHYSSDDREITTNPSVEDHCYYHGRIQNDAESTASISACNGLKGHFKLRGETYFIEPLKIPDSEAHAVYKYENIENEDEAPKMCGVTQDNWESDEPIKKTLGLIVPPHERKFEKKFIELVVVVDHSMVTKYNNDSTAIRTWIYEMLNTVNEIYLPFNIRVALVGLEFWCNGDLINVTSTADDTLHSFGEWRASDLLNRKRHDHAQLLTNVTLDHSTLGITFVYGMCKSDRSVELILDYSNITFNMAYIIAHEMGHSLGMLHDTKFCTCGAKPCIMFGKESIPPPKEFSSCSYDQYNKYLLKYNPKCILDPPLRKDIASPAVCGNEIWEEGEECDCGSPADCRNPCCDAATCKLKPGAECGNGECCDKCKIRKAGTECRPARDDCDVAEHCTGQSAECPRNEFQRNGQPCLNNSGYCYNGDCPIMLNQCIALFSPSATVAQDSCFQRNLQGSYYGYCTKEIGYYGKRFPCAPQDVKCGRLYCLDNSFKKNMRCKNDYSYADENKGIVEPGTKCEDGKVCINRKCVDVNTAY
For B1, the “N-terminal amino acid sequence of the thrombin B chain after activation” value was “the recombinant ecarin obtained according to the present invention specifically cleaves the peptide bond at the Arg-Ile site in prothrombin like snake venom derived ecarin” and the “activity to cleave S-2238 (thrombin enzymatic activity after 16 hours at 37 C with 2 U/mL recombinant ecarin)” value is given as “the activity to cleave S-2238 was detected in prothrombin when added with the recombinant ecarin”.
